From PMC5441561 (Science (New York, N.Y.), 2017)
Like-named read-outs stand apart in the source and are kept apart here.

B1: KaiC_(S431E) (enzyme, Thermosynechococcus elongatus, UniProt Q79V60 1-518, looked up)
chain: MTNLPEHQSSPTEQSSAEVKKIPTMIEGFDDISHGGLPQGRTTLVSGTSGTGKTLFAVQFLYNGITIFNEPGIFVTFEESPQDIIKNALSFGWNLQSLIDQGKLFILDASPDPDGQEVAGDFDLSALIERIQYAIRKYKATRVSIDSVTAVFQQYDAASVVRREIFRLAFRLKQLGVTTIMTTERVDEYGPVARFGVEEFVSDNVVILRNVLEGERRRRTVEILKLRGTTHMKGEYPFTINNGINIFPLGAMRLTQRSSNVRVSSGVKTLDEMCGGGFFKDSIILATGATGTGKTLLVSKFLETGCQQGERALLFAYEESRAQLSRNASSWGIDFEELERRGLLRIICAYPESAGLEDHLQIIKSEIADFKPSRVAIDSLSALARGVSNNAFRQFVIGVTGFAKQEEITGFFTNTTDQFMGSNSITESHIETITDTILLLQYVEIRGEMSRAINVFKMRGSWHDKGIREYVITEKGAEIRDSFRNFEGIISGTPTRISVDEKTELARIAKGMQDLESE
B2: KaiA_(cryst) (domain or fragment, Thermosynechococcus elongatus)
chain: SNVDPQHRLSQKLKERLGYLGVYYKRDTAFFFRRMSPADKRKLLDELRSIYRTIVLEYFNTDAKVNERIDEFVSKAFFADISVSQVLEIHVELMDTFSKQLKLEGRSEDILLDYRLTLIDVIAHLSEMYRRSIPREV

Legend:
[1] = biological target: the molecule itself; assay: crystal structure
[2] = biological target: the molecule itself; assay: crystal structure; remark: listed apart in the source

| Protein | stoichiometry N [1] | stoichiometry N [2] |
| --- | --- | --- |
| B1 | 6 |  |
| B2 |  | 2 |
